Results reported in the nanobody polyreactivity screen of Harvey et al. (2022).

Assay: yeast display, Sf9 membrane polyspecificity reagent, FACS + sequencing; frameworks hold sequencing errors
Procedure, shortened: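 Genes from sorted yeast were amplified by colony PCR, read by MiSeq 2 × 250 sequencing and filtered on CDR length. These cells carried a synthetic nanobody library in Saccharomyces cerevisiae BJ5465 and were sorted by FACS into low and high (top ~1%) gates on anti-HA and streptavidin fluorescence. Polyreactivity is labelled according to the gate of origin.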

Sequence	polyreactivity (PSR sort gate)
QVQLQESGGGLVQAGGSLRLSCAASRNISGSSDLGWYHQAPGKEREFVASITSGGTTYYADSVKGRFTISRDNAKNTVYLQMNSLKPEDTAVYYCAVGDPADAEFGYWGQGTQVTVSS	low polyreactivity
QVQLVESGGGLVQAGGSLRLSCAASGYIFAVYAMGWYRQAPGKEREFVAVITWRGGSTYYADSVKGRFTISRDNAKNTVYLQMNSLKPEDTAVYYCAADVYAQYDYWGQGTQVTVSS	high polyreactivity
QLQLVESGGGLVQAGGSLRLSCASSGFTLTYAMGWDRQAPGKERELVAAISSSGVRTYYADSVKGRFTISRDNAKNTVYLQKNSLKPEDTALYYCNAFIHGSRSYISDYYWGQGTQVTVSS	high polyreactivity
QVQLVESAGGLVQEGGSLRLSCAASGRIFGPYALGWYRQAPGKERELVAAISFSGSGTYYAASVKGRFTISRDNANNTVYLQIYSLKPEDNAVYYCAADGVYIDSNNRNTSDYWGQGTQVTVSS	low polyreactivity
QVQLVESGGGLVQARGSLRLSCAASGSTFSVYAMGWYRQAPGKERELVAAITDVDNTYYADSVKGRFTISRDNAKNTVYLQRNSLKPEDTAVYYCDARYYQYYEYYHWGQGTQVTVSS	low polyreactivity
QVQLVESGGGLVQAGGSLRLSCAASGRTFRYYAMGWYRQAPGKESEFVARISSSGSSTYSADSVKGRFTISRDNAKNTVYLQMNSLKPEDTAVYYCAKTVLPYGGSNGLKWYYYWGQGTQVTVSS	high polyreactivity
QVQLVESGGGLVQAGGSLRLSCAASGSTFFGYAMGWYRQAPGKERELVAAITYTGDTTYYADSVKGRFTISRDNAKNTVYLQMNSLNPEDTAVYYCAAGGYPVYTGRGMDYWGQGTQVTVSS	low polyreactivity
QVQLVESGGGLVQAGGSLRLSCAASGRIFSSYAMGWYRQEPGKERELVAAISRSGARTYYADSVKGRFTISRDNAKNTVYLQMNSLKPEDTAVYYCAAVTVAGYDYWGQGTQVTVSS	high polyreactivity
QVQLVESGGGLVQAGGRLRLSCAASGITSDVYAMGWYRQAPGKERELVAAISSAGSTYYADSVKGRFTISRDNAKNTVYLQMNSLKPEDTAVYYCDAAGYPQTYLYYYWGQGTQVTVSS	low polyreactivity
QVQLVESGGGLVQAGGSLRLSCADSGSTFPYYTMGWYRQAPGKEREFVAAISRSTGRTSYADSVKGRFTISRDNAKNTVYLQMNSVKPEDSAVYDCAVRWYYYRDDTIYVLGRYDYWGQGTQVSVSS	high polyreactivity
QVQLVESGGGLVQAGGSLRLSCAASGRIFYVYAMGGYRQAPGKERELVAGITSGGSTTYADSVKGRFTISRDNAKNTVYLQMNSLKPEDTAVYYCAALQRQSYWTYGYWGHGTQVTVSS	high polyreactivity
QVQLVESGGGLVQAGGSLRLSCAASGNIFRYNAMGWYRQAPGKERELVAAISRGGSTKYADSVKGRFTISRDNAKNTVYLQMNSLKPEDTAVFYCARVKSTGSTFASPYDYWGQGTQVTVSS	high polyreactivity
QVQLVESGGGLVQAGGSLRLSCAASGFIFRYYAMGWYTQAPGKERELVAAISYSGGSTYYADSVKGRFTITRDNAKNTVYLQMNSLKPEDTAVYYCAAVTVKSNQYLYYVYPYGMGYWGQGTQVTVSS	high polyreactivity
QVQLVESGGRLVQAGGRLRLRSAASGFTFSRNAMGWYRQAPGKERELVAAIDSGGSTDYAVSVKGRFTISRDNAKNTVYLQMNSLKPADTAVYYCAKASSATRYVQLRQDYDYWGQGTQVTVSS	low polyreactivity
QVQLVESGGGSVQAGGSLRLSCAASGFTFRYYAMGWYRQAPGKERELVARISYSGTSTYYADSVKGRFTISRDNAKNTVYLQMNSLKPEDTAVYYCAKLHRTYRQYIYDYWGQGTQVTVSS	high polyreactivity
QVQRVESGGGLVQAGGSLRLSCAASGSIFSVYAMGWYRQAPGKERELVAAITSSGGSTYYADSVKGRFTISRDNAKNTVNFQMKSLKPEDTAVYYCAADKYLRRRSWYRYGYWGQGTQVTVSS	high polyreactivity
QDQLVESGGGLVQAGGSLRLSCAASGSTFHPYAMGWYRQAPGKERELVAAITFSGGSTYADSVKGRFTISRDNAKNTVYLQMNSLKPEDNAVYYCAAEWWYWRGWRDYWGQGTQVTVSS	low polyreactivity
